From patent US20210253718A1, “FRIZZLED5 PROTEIN-BINDING AGENTS” (Modmab Therapeutics Corporation, priority 2016, published 2021)
Substitutions are numbered along the chain they refer to. Each block holds one molecule with its values, some of them ahead of it.

Experiments:
FZD2 CRD = target: T1, FZD2 CRD (Homo sapiens, UniProt Q14332); test: Flow cytometry of anti-FZD5 Fab binding to CHO cells overexpressing Frizzled CRD
T1 construct: D35-P161; GPI anchor signal (C); expressed in transfected cells; host or cells: CHO cells, lentiviral pLenti-puro
Procedure: (§1) Plasmids: pLCKO lentiviral vector used for knockout (TKO) library construction and expression of individual gRNAs was constructed as described previously (Hart et al., 2015). Briefly, single guide RNA (sgRNA) scaffold was amplified from px330 (Addgene 42230) and cloned into pLKO.TRC005 lentiviral vector (Broad Institute, Cambridge, Mass.) using AgeI/EcoRI restriction sites. BfuAI sites were added at the 5′ end of the sgRNA scaffold for cloning the TKO library or individual gRNA target sequences. Lenti Cas9-2A-BsdR vector used to generate Cas9 stable expression cell lines was constructed as described previously (Hart et al., 2015). Briefly, lentiCRISPR pXPR_001 (Addgene 49535) was modified through removal of the sgRNA scaffold region through NdeI/EcoRI digest and blunt ends generation using Large Klenow Fragment (NEB). 2A-puro was replaced with 2A-BsdR by PCR using the NheI/MluI sites. Each of the 10 human Frizzled cysteine rich domains (CRDs) were cloned into the lentiviral expression plasmid pLenti-puro in the following cassette: FZD_CRD-MYC-GPI.
(§2) Flow cytometry: Primary staining of cells was performed by treatment with 200 nM Frizzled profiler Fab. Alexa Fluor 488 AffiniPure F(ab′)2 was used as the secondary antibody (Jackson ImmunoResearch #109-546-097). c-Myc (9E10) IgG1 (primary antibody, Santa Cruz, lot #D0306) and Alexa Fluor 488 IgG (secondary antibody, Life technologies, lot #1458649) were used as controls. Dead cells were excluded by staining with Fixable Viability Dye eFluor 660 (eBioscience, catalogue number 65-0864). All reagents were used as per manufacturer's instructions. Flow cytometry was performed on a BD FACSCanto II flow cytometer (BD Biosciences), and data were analyzed with FlowJo software (FlowJo, LLC).
(§3) To confirm that the FZD5-WNT7B circuit is not driven simply by expression and rule out the possibility of a disconnect between RNA and protein levels for the Wnt receptors in HPAF-II cells, a panel of recombinant Fabs were generated, alternatively referred to herein as ‘Frizzled profiler’, that can detect and discriminate all but one of the ten Frizzled receptors. […] To characterize the binding specificity of these Fabs on cells, a panel of 10 CHO cell lines was generated, each expressing the CRD domain of a different myc-tagged Frizzled family member anchored at the plasma membrane through a GPI anchor (CHO-myc-FZDGPI). Despite the high sequence identity between Frizzled family members (FIG. 7A, FIG. 7B), selective Fabs were identified for FZD4, FZD5, FZD6 and FZD10 as assessed by immunofluorescence and flow cytometry (FIG. 7D and FIG. 8). […] The FZD8 CRD is most homologous to that of FZD5 (FIG. 7B). These Fabs can be used to discriminate expression of FZD1, FZD2, FZD4, FZD5, FZD6, FZD7, FZD8, FZD9 and FZD10 (FIG. 7D and FIG. 8). The ‘Frizzled profiler’ therefore consists of 10 different Fabs that can be used to discriminate expression of 9 different Frizzled family members. The Frizzled profiler was then used to confirm that HPAF-II cells express FZD1, FZD5, FZD6 and possibly FZD8 (FIG. 7E).
(§4) The binding of anti-FZD5 Fabs to cell surface-expressed Frizzled protein was further determined for each member of the Frizzled family via flow cytometry and immunofluorescence analysis of a panel of 10 CHO cell lines, each ectopically over-expressing the extracellular cysteine-rich domain (CRD) of a different Frizzled protein family member.

FZD4 CRD = target: T2, FZD4 CRD (Homo sapiens, UniProt Q9ULV1); test: as above
T2 construct: E42-V167; GPI anchor signal (C); expressed in transfected cells; host or cells: CHO cells, lentiviral pLenti-puro
T2 sequence (Q9ULV1 42-167): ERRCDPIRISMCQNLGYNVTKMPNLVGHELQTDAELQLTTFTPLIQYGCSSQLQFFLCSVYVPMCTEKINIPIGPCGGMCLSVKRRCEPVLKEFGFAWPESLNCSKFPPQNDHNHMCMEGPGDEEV
Procedure: as §1, §2, §3, §4

B1: Fab-2901: anti-FZD5 Fab with antibody variable region Fv-2901; CDR SEQ ID NOs: 35, 36, 40, 79, 116, 154 (antibody, V domains shown)
VH: EVQLVESGGGLVQPGGSLRLSCAASGFNISYSYMHWVRQAPGKGLEWVASIYSYSSYTYYADSVKGRFTISADTSKNTAYLQMNSLRAEDTAVYYCARSWYYWSPSSGMDYWGQGTLVTVSS
VL: DIQMTQSPSSLSASVGDRVTITCRASQSVSSAVAWYQQKPGKAPKLLIYSASSLYSGVPSRFSGSRSGTDFTLTISSLQPEDFATYYCQQGGFLITFGQGTKVEIK
Median fluorescence, Frizzled CRD overexpressed on CHO cells: FZD2 (FZD2 CRD): 13.95

B2: Fab-2906: anti-FZD5 Fab with antibody variable region Fv-2906; CDR SEQ ID NOs: 35, 36, 45, 84, 121, 158 (antibody, V domains shown)
VH: EVQLVESGGGLVQPGGSLRLSCAASGFNFSSSSIHWVRQAPGKGLEWVAYISSSYGYTYYADSVKGRFTISADTSKNTAYLQMNSLRAEDTAVYYCARTVRGSKKPYFSGWAMDYWGQGTLVTVSS
VL: DIQMTQSPSSLSASVGDRVTITCRASQSVSSAVAWYQQKPGKAPKLLIYSASSLYSGVPSRFSGSRSGTDFTLTISSLQPEDFATYYCQQWSWGFLITFGQGTKVEIK
Median fluorescence, Frizzled CRD overexpressed on CHO cells: FZD4 (FZD4 CRD): 12.3

B4: Fab-2899: anti-FZD5 Fab with antibody variable region Fv-2899; CDR SEQ ID NOs: 35, 36, 38, 77, 114, 153 (antibody, V domains shown)
VH: EVQLVESGGGLVQPGGSLRLSCAASGFNLYYYYMHWVRQAPGKGLEWVASIYPSSGSTSYADSVKGRFTISADTSKNTAYLQMNSLRAEDTAVYYCARGALDYWGQGTLVTVSS
VL: DIQMTQSPSSLSASVGDRVTITCRASQSVSSAVAWYQQKPGKAPKLLIYSASSLYSGVPSRFSGSRSGTDFTLTISSLQPEDFATYYCQQWYSSYGLITFGQGTKVEIK
Median fluorescence, Frizzled CRD overexpressed on CHO cells: FZD4 (FZD4 CRD): 11.86

B5: Fab-2903: anti-FZD5 Fab with antibody variable region Fv-2903; CDR SEQ ID NOs: 35, 36, 42, 81, 118, 155 (antibody, V domains shown)
VH: B4 VH with Y30S, M34I, S54Y, G56S, S57Y, L101I
VL: B4 VL with Y92G, S93G, S94G, Y95S, G96S, I98F
Median fluorescence, Frizzled CRD overexpressed on CHO cells: FZD2 (FZD2 CRD): 10.84

B7: Fab-2902: anti-FZD5 Fab with antibody variable region Fv-2902; CDR SEQ ID NOs: 35, 36, 41, 80, 117, 153 (antibody, V domains shown)
VH: B4 VH with L29I, Y30S, M34I, Y52S, P53S, G56S
VL: B4 VL with S93A, S94F, Y95G, G96A
Median fluorescence, Frizzled CRD overexpressed on CHO cells: FZD4 (FZD4 CRD): 10.27

B10: Fab-2922: anti-FZD5 Fab with antibody variable region Fv-2922; CDR SEQ ID NOs: 35, 36, 61, 99, 137, 171 (antibody, V domains shown)
VH: B2 VH with F29I, S30Y, S33Y, I34M, Y50S, S53P, S54Y, Y55S, Y59S
VL: B4 VL with W91S, Y92F, S93V, S94Y, Y95P, G96Y
Median fluorescence, Frizzled CRD overexpressed on CHO cells: FZD4 (FZD4 CRD): 12.75

Other lines, results leading:

Median fluorescence, Frizzled CRD overexpressed on CHO cells: FZD2 (FZD2 CRD): 9.82
B3: Fab-2933: anti-FZD5 Fab with antibody variable region Fv-2933; CDR SEQ ID NOs: 35, 36, 72, 109, 148, 177 (antibody, V domains shown)
VH: B2 VH with F29L, S30Y, S33Y, I34M, Y50S, S52Y, Y59S
VL: DIQMTQSPSSLSASVGDRVTITCRASQSVSSAVAWYQQKPGKAPKLLIYSASSLYSGVPSRFSGSRSGTDFTLTISSLQPEDFATYYCQQFWWYASWLFTFGQGTKVEIK

Median fluorescence, Frizzled CRD overexpressed on CHO cells: FZD4 (FZD4 CRD): 10.55
B6: Fab-2923: anti-FZD5 Fab with antibody variable region Fv-2923; CDR SEQ ID NOs: 35, 36, 62, 100, 138, 162 (antibody, V domains shown)
VH: B4 VH with P53S, L101M
VL: B4 VL with S93G, S94Y, Y95S, G96A

Median fluorescence, Frizzled CRD overexpressed on CHO cells: FZD2 (FZD2 CRD): 6.61
B8: Fab-2934: anti-FZD5 Fab with antibody variable region Fv-2934; CDR SEQ ID NOs: 35, 36, 73, 110, 149, 155 (antibody, V domains shown)
VH: B4 VH with L29I, Y30S, Y32S, P53S, L101I
VL: B2 VL with S92Y, W93H, G94Y, F95G

Median fluorescence, Frizzled CRD overexpressed on CHO cells: FZD2 (FZD2 CRD): 9.39
B9: Fab-2932: anti-FZD5 Fab with antibody variable region Fv-2932; CDR SEQ ID NOs: 35, 36, 71, 108, 147, 153 (antibody, V domains shown)
VH: B4 VH with L29I, Y30S, Y32S, P53S, S55Y, G56S
VL: B4 VL with S93G, Y95F, G96A

Median fluorescence, Frizzled CRD overexpressed on CHO cells: FZD4 (FZD4 CRD): 7.3
B11: Fab-2935: anti-FZD5 Fab with antibody variable region Fv-2935; CDR SEQ ID NOs: 35, 36, 74, 111, 150, 178 (antibody, V domains shown)
VH: B4 VH with L29I, M34I, G99A, L101F
VL: B4 VL with S93G, S94G, G96A

Median fluorescence, Frizzled CRD overexpressed on CHO cells: FZD4 (FZD4 CRD): 9.31
Median fluorescence, Frizzled CRD overexpressed on CHO cells: FZD2 (FZD2 CRD): 11.44
B12: Fab-2930: anti-FZD5 Fab with antibody variable region Fv-2930; CDR SEQ ID NOs: 35, 36, 69, 107, 145, 153 (antibody, V domains shown)
VH: B4 VH with Y30S, M34I, S54Y
VL: B2 VL with S92Y, W93G, G94P, F95Y
